Assay results taken from IntAct's records for PubMed 24863370.

B1: Calvin cycle protein CP12, chloroplastic (Chlamydomonas reinhardtii), A6Q0K5 (parent)
chain: MMLTKSVVISRPAVRPVSTRRAVVVRASGQPAVDLNKKVQDAVKEAEDACAKGTSADCAVAWDTVEELSAAVSHKKDAVKADVTLTDPLEAFCKDAPDADECRVYED
partner: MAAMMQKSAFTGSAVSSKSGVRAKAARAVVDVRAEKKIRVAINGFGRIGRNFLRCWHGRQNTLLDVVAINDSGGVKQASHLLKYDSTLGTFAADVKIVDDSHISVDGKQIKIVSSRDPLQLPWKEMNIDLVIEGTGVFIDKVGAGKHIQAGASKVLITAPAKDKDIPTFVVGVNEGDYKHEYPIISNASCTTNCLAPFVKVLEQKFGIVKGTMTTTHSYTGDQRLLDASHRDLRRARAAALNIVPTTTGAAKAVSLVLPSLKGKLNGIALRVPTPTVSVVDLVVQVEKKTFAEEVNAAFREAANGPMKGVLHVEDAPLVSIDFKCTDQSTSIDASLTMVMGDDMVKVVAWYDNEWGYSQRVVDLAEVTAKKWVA
B2: Calvin cycle protein CP12, chloroplastic (Chlamydomonas reinhardtii), A6Q0K5 (parent)
chain: B1 chain
partner: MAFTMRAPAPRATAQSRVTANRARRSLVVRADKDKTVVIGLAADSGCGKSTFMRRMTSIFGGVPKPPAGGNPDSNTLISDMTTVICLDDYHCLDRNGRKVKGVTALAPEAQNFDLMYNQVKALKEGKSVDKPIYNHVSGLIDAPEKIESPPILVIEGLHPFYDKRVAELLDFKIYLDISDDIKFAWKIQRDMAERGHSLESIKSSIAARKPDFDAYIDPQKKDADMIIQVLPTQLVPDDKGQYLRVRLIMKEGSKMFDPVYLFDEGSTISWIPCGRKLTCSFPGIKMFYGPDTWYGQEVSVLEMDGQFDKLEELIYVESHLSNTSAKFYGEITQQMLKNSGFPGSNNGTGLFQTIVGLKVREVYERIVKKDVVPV

Variants of: B1
Settings: with g3pa_chlre GAPA

| Variant | effect of a mutation on the interaction |
| --- | --- |
| MMLTKSVVISRPAVRPVSTRRAVVVRASGQPAVDLNKKVQDAVKEAEDACAKGTSADCAVAWDTVEELSAAVSHSKDAVKADVTLTDPLEAFCKDAPDADECRVYED [K75S] | decreasing interaction |

Variants of: B2
Settings: with kppr_chlre PRKA

| Variant | effect of a mutation on the interaction |
| --- | --- |
| MMLTKSVVISRPAVRPVSTRRAVVVRASGQSAVDLNKKVQDAVKEAEDACAKGTSADCAVAWDTVEELSAAVSHKKDAVKADVTLTDPLEAFCKDAPDADECRVYED [P31S] | decreasing interaction |
